# Laboratory results taken from patent publication US20130115677.
# How the values were obtained:
# Experiment in all cases: cleavage_in_vitro
# Settings in all cases: NEB4, 37 C, Mg2+
# [1] = test system: T1, SbfI-HF K251A (Streptomyces species Bf-61?)
# T1 sequence: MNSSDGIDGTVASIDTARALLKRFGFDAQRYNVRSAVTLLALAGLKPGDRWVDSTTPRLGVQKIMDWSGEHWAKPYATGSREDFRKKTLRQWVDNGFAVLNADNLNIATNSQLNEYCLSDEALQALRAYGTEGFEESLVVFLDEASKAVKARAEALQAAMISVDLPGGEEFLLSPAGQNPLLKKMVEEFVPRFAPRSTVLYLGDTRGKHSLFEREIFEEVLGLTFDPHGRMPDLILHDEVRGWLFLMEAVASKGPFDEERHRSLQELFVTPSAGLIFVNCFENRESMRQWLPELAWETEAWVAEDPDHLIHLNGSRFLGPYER
# [2] = molecular target: T2, HindIII (Haemophilus influenzae Rd) (UniProt P43870)
# T2 sequence: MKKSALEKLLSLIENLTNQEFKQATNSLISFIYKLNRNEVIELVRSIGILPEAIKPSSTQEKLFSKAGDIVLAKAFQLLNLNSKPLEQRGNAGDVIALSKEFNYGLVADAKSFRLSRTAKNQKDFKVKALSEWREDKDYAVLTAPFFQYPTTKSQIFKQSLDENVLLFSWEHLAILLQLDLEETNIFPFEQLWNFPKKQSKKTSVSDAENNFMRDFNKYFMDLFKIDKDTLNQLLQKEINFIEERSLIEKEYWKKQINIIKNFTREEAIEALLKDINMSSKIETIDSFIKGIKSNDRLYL
# [3] = test system: T3, SapI (Saccharopolyspora sp.)
# T3 sequence: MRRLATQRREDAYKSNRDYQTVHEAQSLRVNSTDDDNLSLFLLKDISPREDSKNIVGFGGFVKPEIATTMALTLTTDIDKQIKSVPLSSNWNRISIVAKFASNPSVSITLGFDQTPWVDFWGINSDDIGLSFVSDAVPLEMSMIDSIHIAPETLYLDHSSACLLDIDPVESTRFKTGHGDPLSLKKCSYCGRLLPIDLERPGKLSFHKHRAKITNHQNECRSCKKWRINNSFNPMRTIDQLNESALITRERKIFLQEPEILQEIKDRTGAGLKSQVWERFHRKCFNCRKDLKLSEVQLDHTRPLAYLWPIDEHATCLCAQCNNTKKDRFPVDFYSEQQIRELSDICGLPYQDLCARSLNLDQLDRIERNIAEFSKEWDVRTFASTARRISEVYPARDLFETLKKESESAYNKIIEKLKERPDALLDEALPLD
substance,measurement,setting,value
lambda DNA,activity (fidelity index),[1],250
same,activity (fidelity index),[2],32
same,activity (fidelity index),[3],16
